As a reminder, the Kd is the concentration at which binding is half-saturated.

The data set addresses SARS-CoV-2 nucleocapsid protein (NP), full length (SARS-CoV-2, UniProt P0DTC9 1-419). Nature of the data set: BLI. On the technique in general: BLI is a label-free optical method that tracks binding on a fibre tip over time.

B1: 11-mer 5' TRS-derived RNA (ssRNA)
RNA: UCUAAACGAAC
Take B1: binding was characterised by a dissociation constant (Kd) of 3.83 ± 0.04 nM.

For the origin of these results see article PMC12082725.
